T1: LRP6E1E2 (UniProt O75581 20-630)
T1 chain: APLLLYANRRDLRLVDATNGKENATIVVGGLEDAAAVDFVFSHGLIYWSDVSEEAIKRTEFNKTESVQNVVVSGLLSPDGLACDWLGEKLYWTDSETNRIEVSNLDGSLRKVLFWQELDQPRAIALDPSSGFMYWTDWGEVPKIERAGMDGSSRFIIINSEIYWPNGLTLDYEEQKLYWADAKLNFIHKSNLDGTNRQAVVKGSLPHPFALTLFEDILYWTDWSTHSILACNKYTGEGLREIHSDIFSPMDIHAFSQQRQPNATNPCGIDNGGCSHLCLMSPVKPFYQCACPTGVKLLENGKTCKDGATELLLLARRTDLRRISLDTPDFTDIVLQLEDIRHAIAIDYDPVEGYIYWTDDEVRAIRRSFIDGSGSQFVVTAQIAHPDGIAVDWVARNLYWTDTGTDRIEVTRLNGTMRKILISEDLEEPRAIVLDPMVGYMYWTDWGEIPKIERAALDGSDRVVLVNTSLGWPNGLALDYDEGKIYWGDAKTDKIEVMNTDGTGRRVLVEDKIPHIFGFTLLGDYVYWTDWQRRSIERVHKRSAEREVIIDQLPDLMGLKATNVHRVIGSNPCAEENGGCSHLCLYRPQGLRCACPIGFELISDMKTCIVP


What was measured:
Frizzled 1 (Fzd1) = Frizzled 1 (Fzd1) (UniProt Q9UP38 111-230); test: BLI (Octet)
LRP6E1E2 = molecular target: T1, LRP6E1E2; test: BLI (Octet)

| Kd (Frizzled 1 (Fzd1)) | Kd (LRP6E1E2) | Binder |
| --- | --- | --- |
| 0.7 nM | 5.9 nM | L1:10:F1:Fc (bispecific antibody) DVKLVESGGGLVKLGGSLRLSCAASGFSFSTSYMSWVRQTPEKRLELVAAINLNGGSTYYSDTVKGRFTISRDNAKNTLYLQMSSLKSEDTAFYYCASELAGYGTPFAYWGQGTLVTVSAGSAASGSSGGSSSGADIVLTQSPATLSVTPGDSVSLSCKASQSISYNLHWYQQKSHESPRLLIKYTSQSISGIPSRFSGSGSGTDFTLTINNVETEDFGMYFCQQSNSWPLTFGAGTKLEVKGSGSGGSGSGEVQLVESGGGLVQPGGSLRLSCAASGFTFSHYTLSWVRQAPGKGLEWVSVISGDGSYTYYADSVKGRFTISSDNSKNTLYLQMNSLRAEDTAVYYCARNFIKYVFANWGQGTLVTVSSGGGGSGGGGSGGGGSDIELTQPPSVSVAPGQTARISCSGDNIGSFYVHWYQQKPGQAPVLVIYDKSNRPSGIPERFSGSNSGNTATLTISGTQAEDEADYYCQSYANTLSLVFGGGTKLTVLGSGSGDKTHTCPPCPAPEAAGGPSVFLFPPKPKDTLMISRTPEVTCVVVDVSHEDPEVKFNWYVDGVEVHNAKTKPREEQYNSTYRVVSVLTVLHQDWLNGKEYKCKVSNKALGAPIEKTISKAKGQPREPQVYTLPPSREEMTKNQVSLTCLVKGFYPSDIAVEWESNGQPENNYKTTPPVLDSDGSFFLYSKLTVDKSRWQQGNVFSCSVMHEALHNHYTQKSLSLSPGK |
| 0.6 nM | 4.9 nM | L1:5:F1:Fc (bispecific antibody) DVKLVESGGGLVKLGGSLRLSCAASGFSFSTSYMSWVRQTPEKRLELVAAINLNGGSTYYSDTVKGRFTISRDNAKNTLYLQMSSLKSEDTAFYYCASELAGYGTPFAYWGQGTLVTVSAGSAASGSSGGSSSGADIVLTQSPATLSVTPGDSVSLSCKASQSISYNLHWYQQKSHESPRLLIKYTSQSISGIPSRFSGSGSGTDFTLTINNVETEDFGMYFCQQSNSWPLTFGAGTKLEVKGSGSGEVQLVESGGGLVQPGGSLRLSCAASGFTFSHYTLSWVRQAPGKGLEWVSVISGDGSYTYYADSVKGRFTISSDNSKNTLYLQMNSLRAEDTAVYYCARNFIKYVFANWGQGTLVTVSSGGGGSGGGGSGGGGSDIELTQPPSVSVAPGQTARISCSGDNIGSFYVHWYQQKPGQAPVLVIYDKSNRPSGIPERFSGSNSGNTATLTISGTQAEDEADYYCQSYANTLSLVFGGGTKLTVLGSGSGDKTHTCPPCPAPEAAGGPSVFLFPPKPKDTLMISRTPEVTCVVVDVSHEDPEVKFNWYVDGVEVHNAKTKPREEQYNSTYRVVSVLTVLHQDWLNGKEYKCKVSNKALGAPIEKTISKAKGQPREPQVYTLPPSREEMTKNQVSLTCLVKGFYPSDIAVEWESNGQPENNYKTTPPVLDSDGSFFLYSKLTVDKSRWQQGNVFSCSVMHEALHNHYTQKSLSLSPGK |
| 0.8 nM | 5.6 nM | L1:15:F1:Fc (bispecific antibody) DVKLVESGGGLVKLGGSLRLSCAASGFSFSTSYMSWVRQTPEKRLELVAAINLNGGSTYYSDTVKGRFTISRDNAKNTLYLQMSSLKSEDTAFYYCASELAGYGTPFAYWGQGTLVTVSAGSAASGSSGGSSSGADIVLTQSPATLSVTPGDSVSLSCKASQSISYNLHWYQQKSHESPRLLIKYTSQSISGIPSRFSGSGSGTDFTLTINNVETEDFGMYFCQQSNSWPLTFGAGTKLEVKGSGSGGSGSGGSSGGEVQLVESGGGLVQPGGSLRLSCAASGFTFSHYTLSWVRQAPGKGLEWVSVISGDGSYTYYADSVKGRFTISSDNSKNTLYLQMNSLRAEDTAVYYCARNFIKYVFANWGQGTLVTVSSGGGGSGGGGSGGGGSDIELTQPPSVSVAPGQTARISCSGDNIGSFYVHWYQQKPGQAPVLVIYDKSNRPSGIPERFSGSNSGNTATLTISGTQAEDEADYYCQSYANTLSLVFGGGTKLTVLGSGSGDKTHTCPPCPAPEAAGGPSVFLFPPKPKDTLMISRTPEVTCVVVDVSHEDPEVKFNWYVDGVEVHNAKTKPREEQYNSTYRVVSVLTVLHQDWLNGKEYKCKVSNKALGAPIEKTISKAKGQPREPQVYTLPPSREEMTKNQVSLTCLVKGFYPSDIAVEWESNGQPENNYKTTPPVLDSDGSFFLYSKLTVDKSRWQQGNVFSCSVMHEALHNHYTQKSLSLSPGK |
| 0.4 nM | 5.5 nM | F1:15:L1:Fc (bispecific antibody) EVQLVESGGGLVQPGGSLRLSCAASGFTFSHYTLSWVRQAPGKGLEWVSVISGDGSYTYYADSVKGRFTISSDNSKNTLYLQMNSLRAEDTAVYYCARNFIKYVFANWGQGTLVTVSSGGGGSGGGGSGGGGSDIELTQPPSVSVAPGQTARISCSGDNIGSFYVHWYQQKPGQAPVLVIYDKSNRPSGIPERFSGSNSGNTATLTISGTQAEDEADYYCQSYANTLSLVFGGGTKLTVLGSGSGGSGSGGSSGGDVKLVESGGGLVKLGGSLRLSCAASGFSFSTSYMSWVRQTPEKRLELVAAINLNGGSTYYSDTVKGRFTISRDNAKNTLYLQMSSLKSEDTAFYYCASELAGYGTPFAYWGQGTLVTVSAGSAASGSSGGSSSGADIVLTQSPATLSVTPGDSVSLSCKASQSISYNLHWYQQKSHESPRLLIKYTSQSISGIPSRFSGSGSGTDFTLTINNVETEDFGMYFCQQSNSWPLTFGAGTKLEVKGSGSGDKTHTCPPCPAPEAAGGPSVFLFPPKPKDTLMISRTPEVTCVVVDVSHEDPEVKFNWYVDGVEVHNAKTKPREEQYNSTYRVVSVLTVLHQDWLNGKEYKCKVSNKALGAPIEKTISKAKGQPREPQVYTLPPSREEMTKNQVSLTCLVKGFYPSDIAVEWESNGQPENNYKTTPPVLDSDGSFFLYSKLTVDKSRWQQGNVFSCSVMHEALHNHYTQKSLSLSPGK |
| 0.4 nM | 5.4 nM | F1:10:L1:Fc (bispecific antibody) EVQLVESGGGLVQPGGSLRLSCAASGFTFSHYTLSWVRQAPGKGLEWVSVISGDGSYTYYADSVKGRFTISSDNSKNTLYLQMNSLRAEDTAVYYCARNFIKYVFANWGQGTLVTVSSGGGGSGGGGSGGGGSDIELTQPPSVSVAPGQTARISCSGDNIGSFYVHWYQQKPGQAPVLVIYDKSNRPSGIPERFSGSNSGNTATLTISGTQAEDEADYYCQSYANTLSLVFGGGTKLTVLGSGSGGSGSGDVKLVESGGGLVKLGGSLRLSCAASGFSFSTSYMSWVRQTPEKRLELVAAINLNGGSTYYSDTVKGRFTISRDNAKNTLYLQMSSLKSEDTAFYYCASELAGYGTPFAYWGQGTLVTVSAGSAASGSSGGSSSGADIVLTQSPATLSVTPGDSVSLSCKASQSISYNLHWYQQKSHESPRLLIKYTSQSISGIPSRFSGSGSGTDFTLTINNVETEDFGMYFCQQSNSWPLTFGAGTKLEVKGSGSGDKTHTCPPCPAPEAAGGPSVFLFPPKPKDTLMISRTPEVTCVVVDVSHEDPEVKFNWYVDGVEVHNAKTKPREEQYNSTYRVVSVLTVLHQDWLNGKEYKCKVSNKALGAPIEKTISKAKGQPREPQVYTLPPSREEMTKNQVSLTCLVKGFYPSDIAVEWESNGQPENNYKTTPPVLDSDGSFFLYSKLTVDKSRWQQGNVFSCSVMHEALHNHYTQKSLSLSPGK |
| 0.3 nM | 5.1 nM | F1:5:L1:Fc (bispecific antibody) EVQLVESGGGLVQPGGSLRLSCAASGFTFSHYTLSWVRQAPGKGLEWVSVISGDGSYTYYADSVKGRFTISSDNSKNTLYLQMNSLRAEDTAVYYCARNFIKYVFANWGQGTLVTVSSGGGGSGGGGSGGGGSDIELTQPPSVSVAPGQTARISCSGDNIGSFYVHWYQQKPGQAPVLVIYDKSNRPSGIPERFSGSNSGNTATLTISGTQAEDEADYYCQSYANTLSLVFGGGTKLTVLGSGSGDVKLVESGGGLVKLGGSLRLSCAASGFSFSTSYMSWVRQTPEKRLELVAAINLNGGSTYYSDTVKGRFTISRDNAKNTLYLQMSSLKSEDTAFYYCASELAGYGTPFAYWGQGTLVTVSAGSAASGSSGGSSSGADIVLTQSPATLSVTPGDSVSLSCKASQSISYNLHWYQQKSHESPRLLIKYTSQSISGIPSRFSGSGSGTDFTLTINNVETEDFGMYFCQQSNSWPLTFGAGTKLEVKGSGSGDKTHTCPPCPAPEAAGGPSVFLFPPKPKDTLMISRTPEVTCVVVDVSHEDPEVKFNWYVDGVEVHNAKTKPREEQYNSTYRVVSVLTVLHQDWLNGKEYKCKVSNKALGAPIEKTISKAKGQPREPQVYTLPPSREEMTKNQVSLTCLVKGFYPSDIAVEWESNGQPENNYKTTPPVLDSDGSFFLYSKLTVDKSRWQQGNVFSCSVMHEALHNHYTQKSLSLSPGK |

— US20210292422A1 (published 2021)
